The results in this text go back to patent US7792665B2, “Method for designing a compound based on the three dimensional structure of phosphoinositide dependent protein kinase 1 (PDK1)” (Medical Research Council, priority 2002, dated 2010).

The target in experiment [1] is S6K-pHM, phosphopeptide comprising the hydrophobic motif of S6K1. Description: SPR (BiaCore), against wild type PDK1.
For experiment [2] the target is unchanged. Description: SPR (BiaCore), rounded value. For orientation: In SPR one partner is held on a chip, and binding of the other changes the refractive index at the surface.
Experiment [3] shares this target. Description: SPR (BiaCore 3000), biotinylated S6K-pHM on SA chip, GST-PDK1 injected at 2-2150 nM, steady state, apparent Kd.
The target of another experiment is T1, PDK1[K76A] (Homo sapiens, UniProt O15530, K76A).
T1 construct: made in house; host or cells: human embryonic kidney 293 cells (pEBG2T vector)
T1 sequence (O15530 1-556 K76A): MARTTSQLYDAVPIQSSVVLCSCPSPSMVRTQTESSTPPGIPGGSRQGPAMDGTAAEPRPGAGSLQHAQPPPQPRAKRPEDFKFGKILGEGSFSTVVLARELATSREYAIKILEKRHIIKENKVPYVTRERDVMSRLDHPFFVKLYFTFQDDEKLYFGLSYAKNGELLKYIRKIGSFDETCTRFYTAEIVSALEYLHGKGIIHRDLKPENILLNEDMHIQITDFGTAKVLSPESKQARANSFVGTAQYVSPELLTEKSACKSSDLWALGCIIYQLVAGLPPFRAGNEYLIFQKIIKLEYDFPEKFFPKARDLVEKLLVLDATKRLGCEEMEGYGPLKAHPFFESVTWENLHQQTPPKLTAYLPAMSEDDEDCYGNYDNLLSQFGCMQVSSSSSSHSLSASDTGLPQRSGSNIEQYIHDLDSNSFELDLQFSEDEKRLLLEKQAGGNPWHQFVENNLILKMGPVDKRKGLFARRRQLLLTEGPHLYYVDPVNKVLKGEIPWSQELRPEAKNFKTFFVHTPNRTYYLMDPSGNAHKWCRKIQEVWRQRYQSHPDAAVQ
Description: PDK1 catalytic activity towards T308tide, activation by peptides, PDK1[K76A]. Type of experiment: biochemical. The note with it: high peptide concentrations. As for the experimental part: (§1) C. Activation of the indicated forms of PDK1 by 56K-pHM and S6K-HM. PDK1 activity was measured using the peptide substrate (T308tide) in the presence of the indicated concentrations of 56K-pHM (closed circles) and S6K-HM (open circles) as described in the methods. Assays were performed in triplicate and similar results obtained in 2 separate experiments. The results are the average—SD for a single experiment.
The ability of wild type and mutant PDK1 to phosphorylate the synthetic peptide T308tide ([…] ([Biondi et al., 2000]) (SEQ ID NO:108) was carried out in 30 μl assays containing 100 ng of wild type or mutant PDK1, 50 mM Tris/HCl pH 7.5, 0.1% 13-mercaptoethanol, 10 mM MgCl2, 100 μM [32γ P]ATP (200 cpm/pmol), 0.5 μM microcystin-LR, 1 mM T308tide in the presence or absence of the indicated concentrations of the 56K-pHM peptide ([…](P)YVAPSV) (SEQ ID NO:104) or 56K-HM. peptide ([…]) (SEQ ID NO:105). After incubation for 10 min at 30° C., 25 μl of the resultant mixture was spotted into P81 phosphocellulose paper (2×2 cm) and the papers washed and analysed as described previously for assays of MAP kinase. Control assays were carried out in parallel in which either PDK1, or peptide substrate were omitted; these values were always less than 5% of the activity measured in the presence of these reagents. […]

Another experiment addresses T2, PDK1[R131A] (Homo sapiens, UniProt O15530, R131A).
T2 construct: GST (N); made in house; host or cells: human embryonic kidney 293 cells (pEBG2T vector)
T2 sequence (O15530 1-556 R131A): T1 sequence (O15530 1-556 K76A) with A76K, R131A
In words: PDK1 catalytic activity towards T308tide, activation by peptides, PDK1[R131A]. It is filed as biochemical. The note with it: high peptide concentrations. As to the method:
as §1
The ability of wild type and mutant PDK1 to phosphorylate the synthetic peptide T308tide ([…] ([Biondi et al., 2000]) (SEQ ID NO:108) was carried out in 30 μl assays containing 100 ng of wild type or mutant PDK1, 50 mM Tris/HCl pH 7.5, 0.1% 13-mercaptoethanol, 10 mM MgCl2, 100 μM [32γ P]ATP (200 cpm/pmol), 0.5 μM microcystin-LR, 1 mM T308tide in the presence or absence of the indicated concentrations of the 56K-pHM peptide ([…](P)YVAPSV) (SEQ ID NO:104) or 56K-HM. peptide ([…]) (SEQ ID NO:105). After incubation for 10 min at 30° C., 25 μl of the resultant mixture was spotted into P81 phosphocellulose paper (2×2 cm) and the papers washed and analysed as described previously for assays of MAP kinase. Control assays were carried out in parallel in which either PDK1, or peptide substrate were omitted; these values were always less than 5% of the activity measured in the presence of these reagents. One Unit of PDK1 activity was defined as that amount required to catalyse the phosphorylation of 1 nmol of the T308tide in 1 min.

The next experiment addresses T3, wild type PDK1 (Homo sapiens, UniProt O15530).
T3 sequence (O15530 1-556): T1 sequence (O15530 1-556 K76A) with A76K
Description: Surface plasmon resonance (BiaCore) binding of hydrophobic motif peptides, wild type PDK1. Set-up: made in house; host or cells: human embryonic kidney 293 cells (pEBG2T vector). The note with it: surface plasmon resonance. As to the method: Binding and activation of wild type and mutant forms of PDK1 to a phosphopeptide derived from the hydrophobic motif of S6K1. The binding of the wild type (wt) PDK1 and indicated mutants to a phosphopeptide comprising the hydrophobic motif of S6K1 (S6K-pHM: […]*YVAPSV, where T* indicates phospho-threonine, SEQ ID NO:104) was analysed by surface plasmon resonance as described in the Materials and Methods.
A. The sensor chip SA was coated with 12RUs of the biotinylated S6K-pHM peptide and the binding was analysed following injection of 270 nM wild type PDK1, PDK1 [T148A] and PDK1 [K76A]. […] (data not shown).
B. As in A. except that binding was analysed over a range of PDK1 concentrations (2-2150 nM). The response level at the steady state binding is plotted versus the log of the PDK1 concentration. The estimated Kd was obtained by fitting the data to a sigmoid curve using Kaleidagraph software.
Binding was analysed in a BiaCore 3000 system (BiaCore AB, Stevenage, UK). Biotinylated S6K-pHM (Biotin-C12-[…](P)YVAPSV) (SEQ ID NO:104) or the non-phosphorylated form of this peptide S6K-HM was bound to an streptavidin-coated Sensor chip (SA) (12 response units, RU). 30 μl of wild type or the indicated mutant GST-PDK1 were injected at a flow rate of 30 μl/min, in buffer HBS-P (10 mM HEPES pH 7.4, 0.15M NaCl, 0.005% (by vol) polysorbate-20) supplemented with 1 mM DTT. Specific interactions between 56K-pHM and PDK1 proteins were obtained between the concentration range of 2-2150 nM PDK1. Steady state binding was determined at each concentration. Dissociation of PDK1 from the phospho-peptide was monitored over a 1 min period. Regeneration of the sensor chip surface was performed with 1{tilde over (0)} μl injections of 0.05% SDS. […] (RUmax=435). For all PDK1 construct tested, the off rates for S6Kp-HM were high in comparison to those of PIFtide binding with the time taken for 50% dissociation to occur for 56K-pHM is 30s compared to 1000s for PIFtide.

Positions count from the first letter of the chain named. pKd: −log10 of the molar value. Entries after “also recorded” stand apart in the source; their conditions may differ.

For orientation: pKd means the Kd on a negative log10 scale, so that one unit is a factor of ten.

“GST-PDK1[K76A] (from UniProt O15530 1-556) (enzyme)”: the fold lower affinity than wild type PDK1 in experiment [1] is 3 fold. Moreover, the pKd in experiment [2] was 5.77; in experiment [3], 5.76.

Regarding “S6K-HM: non-phosphorylated S6K-HM peptide (SESANQVFLGFTYVAPSV)”, the “activation of PDK1[K76A] by non-phosphorylated peptide” value in the experiment with PDK1[K76A] is “to a similar extent as wild type PDK1”. Further, the “activation of PDK1[R131A] by non-phosphorylated peptide” value in the experiment with PDK1[R131A] is given as “to a similar extent as wild type PDK1”. Also, the “binding of wild type PDK1 to peptide” value in the experiment with wild type PDK1 is on record as “No detectable binding; also recorded: not detectably”.
